According to US10350264B2, “Compositions and methods for modulating NCOA4-mediated autophagic targeting of ferritin” (Dana-Farber Cancer Institute, Inc., priority 2014, dated 2019):
Ends that are not written are not given here.

B1: aa 235-560: fragment of NCOA4 SEQ ID NO: 4 (protein)
chain: ENSQTSSRACNFFNNVGGNLKGLENWLLKSEKSSYQKCNSHSTTSSFSIEMEKVGDQELPDQDEMDLSDWLVTPQESHKLRKPENGSRETSEKFKLLFQSYNVNDWLVKTDSCTNCQGNQPKGVEIENLGNLKCLNDHLEAKKPLSTPSMVTEDWLVQNHQDPCKVEEVCRANEPCTSFAECVCDENCEKEALYKWLLKKEGKDKNGMPVEPKPEPEKHKDSLNMWLCPRKEVIEQTKAPKAMTPSRIADSFQVIKNSPLSEWLIRPPYKEGSPKEVPGTEDRAGKQKFKSPMNTSWCSFNTADWVLPGKKMGNLSQLSSGEDKWL
modifications: Homo sapien
B2: NCOAB: naturally occurring transcript variant of NCOA4 consisting of amino acids 1-238 and 555-614 (protein)
chain: MNTFQDQSGSSSNREPLLRCSDARRDLELAIGGVLRAEQQIKDNLREVKAQIHSCISRHLECLRSREVWLYEQVDLIYQLKEETLQQQAQQLYSLLGQFNCLTHQLECTQNKDLANQVSVCLERLGSLTLKPEDSTVLLFEADTITLRQTITTFGSLKTIQIPEHLMAHASSANIGPFLEKRGCISMPEQKSASGIVAVPFSEWLLGSKPASGYQAPYIPSTDPQDWLTQKQTLENSQGEDKWLLRKKAQEVLLNSPLQEEHNFPPDHYGLPAVCDLFACMQLKVDKEKWLYRTPLQM
modifications: left off: small tags and cut ends
B3: N-terminal MYC-NCOA4: NCOA4 N-terminal fragment, amino acids 1-245 of SEQ ID NO: 4 (protein)
chain: MNTFQDQSGSSSNREPLLRCSDARRDLELAIGGVLRAEQQIKDNLREVKAQIHSCISRHLECLRSREVWLYEQVDLIYQLKEETLQQQAQQLYSLLGQFNCLTHQLECTQNKDLANQVSVCLERLGSLTLKPEDSTVLLFEADTITLRQTITTFGSLKTIQIPEHLMAHASSANIGPFLEKRGCISMPEQKSASGIVAVPFSEWLLGSKPASGYQAPYIPSTDPQDWLTQKQTLENSQTSSRACN
modifications: N-terminal MYC tag; Homo sapien
B4: aa 383-560: fragment of NCOA4 SEQ ID NO: 4 (protein)
chain: SMVTEDWLVQNHQDPCKVEEVCRANEPCTSFAECVCDENCEKEALYKWLLKKEGKDKNGMPVEPKPEPEKHKDSLNMWLCPRKEVIEQTKAPKAMTPSRIADSFQVIKNSPLSEWLIRPPYKEGSPKEVPGTEDRAGKQKFKSPMNTSWCSFNTADWVLPGKKMGNLSQLSSGEDKWL
modifications: Homo sapien

What was measured:
8988T cells = assay: NCOA4 protein levels while blocking autophagic flux (immunoblot); type: cell-based, human; conditions: CQ or BAF 8 hours, FIG. 2(c)
[1] = biological target: T1, apo-ferritin purified from equine spleen (Equus caballus, UniProt Q8MIP0); assay: GST pull-down assay of ferritin using GST-NCOA4 fragments; type: binding; conditions: anti-FTH1 immunoblot, FIGS. 7, 8, 11
T1 construct: apo-ferritin purified from equine spleen; purchased Sigma F4503; host or cells: equine spleen
T1 sequence (Q8MIP0 whole entry, the tested form may be a part): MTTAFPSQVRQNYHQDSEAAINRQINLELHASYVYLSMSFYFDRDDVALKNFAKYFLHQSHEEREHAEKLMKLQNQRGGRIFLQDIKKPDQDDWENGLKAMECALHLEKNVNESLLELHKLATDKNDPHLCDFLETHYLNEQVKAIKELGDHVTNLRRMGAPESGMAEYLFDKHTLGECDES
T1 sequence (P02791 2-175 partner limits assumed): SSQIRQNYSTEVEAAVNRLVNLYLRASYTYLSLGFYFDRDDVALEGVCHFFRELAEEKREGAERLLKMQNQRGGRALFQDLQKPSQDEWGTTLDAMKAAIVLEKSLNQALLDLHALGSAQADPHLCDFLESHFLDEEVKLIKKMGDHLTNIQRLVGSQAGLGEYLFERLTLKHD
Excerpt: GST-tagged NCOA4 constructs were also made to probe the interactions of C-terminal portions of NCOA4 with ferritin. NCOA4-truncation constructs were produced using Gateway cloning (Invitrogen, Life Technologies, catalog #11789-013 and 11791-019) into a pDEST60 N-terminal GST fusion plasmid (GST-NCOA4) from EMD Millipore (Gateway Nova pET-60-DEST, product #71851-3) and transformed in E. coli BL21 (DE3) cells (New England Biosciences, C2527I).
NCOA4 truncation constructs were designed based on NCBI reference sequence: NP_001138735.1 (SEQ ID NO: 4). In particular, fragments of SEQ ID NO: 4 consisting of amino acids (aa) 1-245, aa 235-614, aa 235-560, aa 235-401, aa 383-560, aa 545-614, aa 383-522, aa 510-560, aa 383-436, aa 436-485, aa 475-522, aa 475-500, aa 480-500, aa 480-504, aa 485-509, aa 490-514, aa 495-522 were designed. Protein expression in the DE3 cells was induced with 1 mM isopropyl-beta-D-thiogalactopyranoside (IPTG) (Sigma, I6758-10 G) for 3 hours at 37° C. Cells were collected by centrifugation, re-suspended in 25 mM Tris-HCl (pH 7.4), 10% (w/v) sucrose and lysed with a single freeze-thaw cycle followed by sonication. After centrifugation, a GST pull-down assay was performed.
In the GST pull-down assay, lysates were incubated with 10 μl of a 50% (v/v) slurry of glutathione Sepharose 4B beads (GE Healthcare Lifesciences, 17-0756-01) for 30 minutes at 4° C. Beads were washed thoroughly with 150 mM NaCl, 20 mM Tris (pH 7.4), 2 mM dithiothreitol (DTT), 0.5% (w/v) Nonidet P-40, leaving 50-100 μg of GST-fusion protein bound to the beads. Beads were then mixed with 0.5-2 μg of apo-ferritin purified from equine spleen (Sigma F4503) or recombinant human FTH1 or FTL produced in Rosetta E. coli (EMD Millipore, 70953-3). The assay mix was incubated for 2 hours at 4° C., and beads were washed four times with 1 ml wash buffer. Proteins were eluted with SDS sample buffer and analyzed by 4-20% gradient SDS-PAGE and immunoblotting with anti-FTH1 antibody (as above) or anti-FLAG antibody (Sigma, F1804-200 UG). Pounceau stain was used to visualize GST-NCOA4 bands. (Pounceau, Sigma, P7170-1 L, protocol as per product manual).

[2] = biological target: T2, HERC2-FLAG fragment (F3, HERC2 amino acids 1700-2700) (Homo sapiens, UniProt O95714); assay: GST pull-down assay of HERC2-FLAG Fragment 3 using GST-NCOA4 fragments; type: binding; conditions: 293T lysate expressing HERC2-FLAG F3, anti-FLAG immunoblot; FIG. 12
T2 construct: HERC2-FLAG fragment (F3, HERC2 amino acids 1700-2700) was produced as described in Bekker-Jensen et al; expressed in transfected cells; host or cells: 293T cells (transient transfection, lysate used)
T2 sequence (O95714 1700-2700): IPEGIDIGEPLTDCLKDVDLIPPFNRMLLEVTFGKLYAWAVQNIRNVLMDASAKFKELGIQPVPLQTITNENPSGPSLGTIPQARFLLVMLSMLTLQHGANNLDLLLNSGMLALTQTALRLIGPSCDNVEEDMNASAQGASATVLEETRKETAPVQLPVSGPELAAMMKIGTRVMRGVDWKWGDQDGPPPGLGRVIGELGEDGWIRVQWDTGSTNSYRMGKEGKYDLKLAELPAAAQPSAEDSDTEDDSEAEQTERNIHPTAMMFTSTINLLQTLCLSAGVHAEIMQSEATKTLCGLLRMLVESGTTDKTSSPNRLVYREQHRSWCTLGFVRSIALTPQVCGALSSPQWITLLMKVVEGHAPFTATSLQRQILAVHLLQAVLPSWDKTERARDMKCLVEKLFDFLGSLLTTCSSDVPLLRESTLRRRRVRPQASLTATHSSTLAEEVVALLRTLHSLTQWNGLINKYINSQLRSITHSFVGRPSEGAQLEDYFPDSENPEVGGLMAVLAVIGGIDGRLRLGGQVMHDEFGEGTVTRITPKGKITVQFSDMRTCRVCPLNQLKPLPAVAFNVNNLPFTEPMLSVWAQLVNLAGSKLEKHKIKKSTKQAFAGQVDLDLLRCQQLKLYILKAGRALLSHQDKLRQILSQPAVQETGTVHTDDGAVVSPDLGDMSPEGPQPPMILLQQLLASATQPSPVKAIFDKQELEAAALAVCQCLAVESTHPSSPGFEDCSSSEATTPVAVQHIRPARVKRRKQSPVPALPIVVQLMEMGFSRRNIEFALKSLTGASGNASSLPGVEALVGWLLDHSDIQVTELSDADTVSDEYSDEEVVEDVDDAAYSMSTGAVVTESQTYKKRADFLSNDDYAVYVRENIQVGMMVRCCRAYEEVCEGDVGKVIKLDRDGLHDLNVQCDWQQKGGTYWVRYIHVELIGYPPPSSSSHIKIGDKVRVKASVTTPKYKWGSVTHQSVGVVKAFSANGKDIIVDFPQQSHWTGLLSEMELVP
Procedure: To map the interaction of NCOA-4 with HERC2, the GST-NCOA4 truncation constructs described above were also tested in a GST pull-down assay with HERC2-FLAG expressing 293T cell line. HERC2-FLAG fragment (F3, HERC2 amino acids 1700-2700) was produced as described in Bekker-Jensen et al., Nature Cell Biology (2010) 12; 80-86. The HERC2-FLAG F3 was transiently transfected into 293T cells using standard transfection procedures using PEI (Polysciences, #23966-2).
Lysates were obtained, as above, and incubated with 10 μl of a 50% (v/v) slurry of glutathione Sepharose 4B beads for 30 minutes at 4° C. Beads were washed thoroughly with 150 mM NaCl, 20 mM Tris (pH 7.4), 2 mM DTT, 0.5% (w/v) Nonidet P-40, leaving 50-100 μg of GST-fusion protein bound to the beads. Beads were then mixed with 300 μg of lysate from a HERC2-FLAG expressing 293T cell line, as above. The assay mix was incubated for 2 hours at 4° C., and beads were washed four times with 1 ml wash buffer. Proteins were eluted with SDS sample buffer and analyzed by 4-20% gradient SDS-PAGE and immunoblotting with anti-HERC2 antibody or anti-FLAG antibody, as above. Coomassie stain was used to visualize GST-NCOA4 bands as above.

[3] = biological target: T3, ferritin purified from horse spleen (mixture of FTH1 and FTL subunits) (Equus caballus, UniProt Q8MIP0); assay: anti-MYC immunoprecipitation of in vitro translated MYC-NCOA4 constructs incubated with ferritin; type: binding; conditions: anti-MYC IP, anti-FTH1 immunoblot, FIG. 5
T3 construct: ferritin purified from horse spleen; purchased Sigma A3641-100 mg; host or cells: horse spleen
T3 sequence (Q8MIP0 whole entry): as the sequence (Q8MIP0 whole entry, the tested form may be a part) above
T3 sequence (P02791 2-175 partner limits assumed): as the sequence (P02791 2-175 partner limits assumed) above
Procedure: To probe the interaction between ferritin and NCOA4, initial binding assays using MYC-tagged NCOA4 full-length and truncation constructs produced using an in vitro translation (“IVT”) system were conducted. MYC-NCOA4 fragments were cloned using PCR into a modified T7 cell-free expression vector (pT7CFE1-NMyc, #88863, Thermo Scientific). 1-Step Human Coupled IVT Kit—DNA from Thermo Scientific (product #88881) was used to produce MYC-tagged NCOA4 constructs as described in the product manual. Apoferritin (Sigma, A3641-100 mg) was added in a pull-down assay using anti-c-Myc Agarose Affinity Gel antibody produced in rabbit (Sigma, A7470-1 ML). Affinity purification reactions were washed thoroughly with 150 mM NaCl, 20 mM Tris (pH 7.4), and 2 mM dithiothreitol. Proteins were eluted with SDS sample buffer and analyzed by 4-20% gradient SDS-PAGE and immunoblotting with anti-FTH1 antibody (Cell Signaling 3998; Western blot 1:1,000) or anti-MYC antibody (Santa Cruz Sc-40; western blot 1:1,000).
The full-length, N-terminal (amino acids (aa) 1-245 of SEQ ID NO: 4) and C-terminal (aa 235-614 of SEQ ID NO:4) MYC-NCOA4 were incubated with ferritin purified from horse spleen (Apoferritin (Sigma, A3641-100 mg), consisting of a mixture of FTH1 and FTL subunits) and anti-MYC immunoprecipitation was performed followed by immunoblotting as described above.

Row | Molecule | binding of GST-NCOA4 fragment to ferritin [1] | association of MYC-NCOA4 construct with ferritin [3] | other results
1 | CO/C1=C\C(C)=C\[C@@H](C)[C@@H](O)[C@@H](C)C/C(C)=C/C=C/[C@H](OC)[C@@H]([C@@H](C)[C@@H](O)[C@H](C)[C@@]2(O)C[C@@H](O)[C@H](C)[C@@H](C(C)C)O2)OC1=O [Bafilomycin A1 (BAF), Bafilomycin A1] | – | – | NCOA4 protein levels (8988T cells): markedly increased
2 | SFQVIKNSPLSEWLIRPPYKEGSPK (Homo sapien) [aa 485-509] | bound to ferritin | – | –
3 | SMVTEDWLVQNHQDPCKVEEVCRANEPCTSFAECVCDENCEKEALYKWLLKKEG (Homo sapien) [aa 383-436] | – | – | binding of GST-NCOA4 fragment to HERC2-FLAG [2]: bound to HERC2-FLAG
4 | aa 1-614: full-length human NCOA4 (NP_001138735.1), in vitro translated | – | associated with ferritin | association of MYC-NCOA4 construct with ferritin ([3]; listed as Full-length NCOA4): bind to ferritin
5 | aa 555-614: printed as C-terminal MYC-NCOA4; probably only the C-terminal part of NCOA4B ({MYC tag}-GEDKWLLRKKAQEVLLNSPLQEEHNFPPDHYGLPAVCDLFACMQLKVDKEKWLYRTPLQM; cysteine pairing not given here) | – | associated with ferritin | –
6 | B1 | bound to ferritin | – | –
7 | B2 | – | did not bind ferritin | –
8 | B3 | – | did not associate with ferritin | –
9 | B4 | bound to ferritin | – | binding of GST-NCOA4 fragment to HERC2-FLAG [2]: binds to HERC2 fragment
